We go through 13 molecules from patent US20230303698A1 (published 2023).

Assay [1] concerns the target T1, human PSMA (human, UniProt Q04609 1-750). The assay is described as follows: FACS binding to LNCaP cells.
Assay [2] addresses T1, human PSMA. The assay is described as follows: FACS binding to LNCaP cells. This is another data set of the same source.
In another assay the target is human CLDN18.2. The assay is described as follows: FACS binding to NUGC-4 cells.
In the next assay the target is T2, human OX40 (human, UniProt P43489 29-277).
T2 chain: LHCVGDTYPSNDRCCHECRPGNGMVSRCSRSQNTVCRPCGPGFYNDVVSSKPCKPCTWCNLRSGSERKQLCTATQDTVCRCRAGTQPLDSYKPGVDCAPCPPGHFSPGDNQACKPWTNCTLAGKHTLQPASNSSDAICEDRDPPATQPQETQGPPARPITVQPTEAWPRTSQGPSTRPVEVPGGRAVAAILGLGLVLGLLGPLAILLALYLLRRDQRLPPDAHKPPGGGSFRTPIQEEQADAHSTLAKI
The assay can be described thus: FACS.

In assay [3] the target is T3, cynomolgus monkey OX40-His protein (cynomolgus monkey).
T3 chain: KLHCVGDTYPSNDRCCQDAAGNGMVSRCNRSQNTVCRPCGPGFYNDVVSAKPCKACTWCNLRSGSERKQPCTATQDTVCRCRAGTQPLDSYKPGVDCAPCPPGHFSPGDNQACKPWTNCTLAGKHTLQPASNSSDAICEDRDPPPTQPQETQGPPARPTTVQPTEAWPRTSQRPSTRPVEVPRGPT
The assay is described as follows: ELISA.

The next assay addresses T4, cynomolgus monkey 4-1BB (cynomolgus monkey).
T4 chain: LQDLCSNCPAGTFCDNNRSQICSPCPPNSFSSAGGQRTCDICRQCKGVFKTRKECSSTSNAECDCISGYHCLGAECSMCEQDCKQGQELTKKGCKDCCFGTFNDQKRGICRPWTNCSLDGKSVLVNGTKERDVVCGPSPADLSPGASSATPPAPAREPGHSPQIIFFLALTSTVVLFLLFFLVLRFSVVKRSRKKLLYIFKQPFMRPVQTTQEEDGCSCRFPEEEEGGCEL
The assay is described as follows: FACS.

Assay [4] addresses T5, human 4-1BB (human, UniProt Q07011 24-255). The assay is described as follows: FACS.
The target in assay [5] is T6, human PD-L1 (human, UniProt Q9NZQ7 19-290). The assay can be described thus: FACS.
T6 sequence (Q9NZQ7 19-290): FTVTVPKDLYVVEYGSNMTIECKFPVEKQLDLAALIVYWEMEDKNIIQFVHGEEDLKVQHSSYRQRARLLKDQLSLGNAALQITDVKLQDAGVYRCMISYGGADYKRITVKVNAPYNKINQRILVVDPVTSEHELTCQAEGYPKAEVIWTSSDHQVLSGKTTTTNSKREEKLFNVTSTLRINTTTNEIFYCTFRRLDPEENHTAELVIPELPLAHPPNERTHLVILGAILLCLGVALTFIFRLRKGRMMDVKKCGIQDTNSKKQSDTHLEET
Assay [6] deals with T6, human PD-L1. The assay can be described thus: FACS binding to CHO-K1/hPD-L1 cells.
Assay [7] has as its target T5, human 4-1BB. The assay is described as follows: FACS. This is another data set of the same source.
Assay [8] addresses T5, human 4-1BB. The assay can be described thus: FACS. This is another data set of the same source.

Read-outs that look alike come from different tables or passages of the source.

T1 sequence (Q04609 whole entry): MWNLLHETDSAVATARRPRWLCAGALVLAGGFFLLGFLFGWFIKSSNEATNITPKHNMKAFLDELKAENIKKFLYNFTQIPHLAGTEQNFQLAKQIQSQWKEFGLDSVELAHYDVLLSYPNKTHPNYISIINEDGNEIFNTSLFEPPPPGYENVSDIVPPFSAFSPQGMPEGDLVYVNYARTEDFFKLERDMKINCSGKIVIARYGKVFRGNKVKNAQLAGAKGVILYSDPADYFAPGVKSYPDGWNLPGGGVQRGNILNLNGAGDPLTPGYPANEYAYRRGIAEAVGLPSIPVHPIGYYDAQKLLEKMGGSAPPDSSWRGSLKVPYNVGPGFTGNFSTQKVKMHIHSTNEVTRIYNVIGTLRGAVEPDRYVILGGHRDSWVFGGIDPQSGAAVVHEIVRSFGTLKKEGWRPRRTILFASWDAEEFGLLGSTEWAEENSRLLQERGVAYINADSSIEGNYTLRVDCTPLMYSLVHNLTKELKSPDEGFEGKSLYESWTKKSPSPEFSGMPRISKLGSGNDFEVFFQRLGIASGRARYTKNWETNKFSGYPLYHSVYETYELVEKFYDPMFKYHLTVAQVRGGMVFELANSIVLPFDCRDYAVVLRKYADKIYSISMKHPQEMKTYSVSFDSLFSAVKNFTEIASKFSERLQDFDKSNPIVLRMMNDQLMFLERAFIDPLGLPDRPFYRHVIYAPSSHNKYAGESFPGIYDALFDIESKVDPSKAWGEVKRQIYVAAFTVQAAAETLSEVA

B1: PR001331, anti-PSMA monoclonal antibody 2E8A1B1 hIgG1 (antibody, V domains shown)
VH: QVQLVESGGGVVQPGRSLRLSCSASGFTFINYGMNWVRQAPGKGLEWVAVIWYDGSNKYYADSVRGRFTISRDNSKNTLYLQMNSLRAEDTAVYYCARGPGYGGHSDAFDIWGQGTMVTVSS
VL: DIQMTQSPSSLSASIGDRVTITCRASQSINSYLNWYQQKPGKAPKLLIYTASSLLSGVPSRFSASGSWTDFSLTISSLQPEDFATYYCQQSFSTPYTFGQGTNLEIKR
For the molecule B1, the 50% effective concentration (EC50) with human PSMA [1] stood at 2.58 nM; with human PSMA [2] it was 0.702 nM.

B2: PR002726, anti-CLDN18.2 monoclonal antibody 13E6F4 hIgG1 (antibody, V domains shown)
VH: EVQLLESGGGLVQPGGSLRLSCAASGFTFSSFVMSWVRQAPGKGLEWVSTISGSGRSTYYADSVKGRFTISRDNSKNTLHLQMNSLRAEDTAVYYCAKDAAAAGTKFDYWGQGTLVTVSS
VL: EIVLTQSPATLSLSPGERATLSCRASQSVSSYLAWYQQKPGQAPRLLIYDASNRATGIPARFSGSGSGTDFTLTISSLEPEDFAVYYCQQRSNWPLTFGGGTKVEIKR
Regarding B2, the EC50 with human CLDN18.2 was determined as 4.98 nM.

B3: PR002067, anti-OX40 heavy-chain antibody R1026P079E12 (antibody, V domains shown)
VH: EVQLLESGGGLVQPGGSLRLSCAASGFTFSSYAMSWVRQAPGKGLEWVSAISGRGGSTFYADSVRGRFTISRDNSKNTLYLQMNSLRAEDTAMYYCVDGTTGTTDVDYWGQGTLVTVSS
On to B3, for which the EC50 in the assay with human OX40 turned out to be 17.8 nM; in assay [3], 0.232 nM.

B4: PR001758, anti-4-1BB heavy-chain antibody 1016P0010B11 (antibody, V domains shown)
VH: EVQLLESGGGLVQLGGSLRLSCAASGFTFSRYAMTWVRQAPEKGLEWVSSISGSGDDTYYGDSVKGRFTISRDNSQNTVYLQMNSLRAEDTAVYFCAKEKAGTTGDYYYNVDVWGQGTTVTVSS
Turning to B4, the EC50 in the assay with cynomolgus monkey 4-1BB was 0.575 nM.

B5: Anti-4-1BB monoclonal antibody utomilumab analog (antibody, V domains shown)
VH: EVQLVQSGAEVKKPGESLRISCKGSGYSFSTYWISWVRQMPGKGLEWMGKIYPGDSYTNYSPSFQGQVTISADKSISTAYLQWSSLKASDTAMYYCARGYGIFDYWGQGTLVTVSS
VL: SYELTQPPSVSVSPGQTASITCSGDNIGDQYAHWYQQKPGQSPVLVIYQDKNRPSGIPERFSGSNSGNTATLTISGTQAMDEADYYCATYTGFGSLAVFGGGTKLTVLG
In the assay with cynomolgus monkey 4-1BB, B5 displayed an EC50 of 0.485 nM.

B6: PR003549 (bispecific antibody)
light: DIQMTQSPSTLSASVGDRVTVTCRASQSIYIWLAWYQQKPGKAPNLLIYKASSLETGVPSRFSGSGSGTEFTLTISSLQPDDFATYYCQQYYGSSRTFGQGTKVEIKRTVAAPSVFIFPPSDEQLKSGTASVVCLLNNFYPREAKVQWKVDNALQSGNSQESVTEQDSKDSTYSLSSTLTLSKADYEKHKVYACEVTHQGLSSPVTKSFNRGEC
heavy: EVQLVESGGGLVQPGGSLRLSCAASGFTFSSYWMSWVRQAPGKGLEWVANIKQEGSEKYYVDSVKGRFTISRDNAKNSLYLQMNSLRAEDTAVYYCARDRAVAGAFDIWGQGTMVTVSSASTKGPSVFPLAPSSKSTSGGTAALGCLVKDYFPEPVTVSWNSGALTSGVHTFPAVLQSSGLYSLSSVVTVPSSSLGTQTYICNVNHKPSNTKVDKKVEPKSCDKTHTCPPCPAPEAAGGPSVFLFPPKPKDTLMISRTPEVTCVVVDVSHEDPEVKFNWYVDGVEVHNAKTKPREEQYNSTYRVVSVLTVLHQDWLNGKEYKCKVSNKALGAPIEKTISKAKGQPREPQVYTLPPSREEMTKNQVSLTCLVKGFYPSDIAVEWESNGQPENNYKTTPPVLDSDGSFFLYSKLTVDKSRWQQGNVFSCSVMHEALHNHYTQKSLSLSPGEPKSSDKTHTPPPPPRTEVQLLESGGGLVQLGGSLRLSCAASGFTFSRYAMTWVRQAPEKGLEWVSSISGSGDDTYYGDSVKGRFTISRDNSQNTVYLQMNSLRAEDTAVYFCAKEKAGTTGDYYYNVDVWGQGTTVTVSS
Regarding B6, the EC50 with human 4-1BB [4] worked out at 1.9 nM; with human PD-L1 [5] it was 1.56 nM.

B7: PR003789 (bispecific antibody)
light: DIQMTQSPSTLSASVGDRVTVTCRASQSIYIWLAWYQQKPGKAPNLLIYKASSLETGVPSRFSGSGSGTEFTLTISSLQPDDFATYYCQQYYGSSRTFGQGTKVEIKRTVAAPSVFIFPPSDEQLKSGTASVVCLLNNFYPREAKVQWKVDNALQSGNSQESVTEQDSKDSTYSLSSTLTLSKADYEKHKVYACEVTHQGLSSPVTKSFNRGEC
heavy: EVQLVESGGGLVQPGGSLRLSCAASGFTFSSYWMSWVRQAPGKGLEWVANIKQEGSEKYYVDSVKGRFTISRDNAKNSLYLQMNSLRAEDTAVYYCARDRAVAGAFDIWGQGTMVTVSSASTKGPSVFPLAPSSKSTSGGTAALGCLVKDYFPEPVTVSWNSGALTSGVHTFPAVLQSSGLYSLSSVVTVPSSSLGTQTYICNVNHKPSNTKVDKKVEPKSCDKTHTCPPCPAPEAAGGPSVFLFPPKPKDTLMISRTPEVTCVVVDVSHEDPEVKFNWYVDGVEVHNAKTKPREEQYNSTYRVVSVLTVLHQDWLNGKEYKCKVSNKALGAPIEKTISKAKGQPREPQVYTLPPSREEMTKNQVSLTCLVKGFYPSDIAVEWESNGQPENNYKTTPPVLDSDGSFFLYSKLTVDKSRWQQGNVFSCSVMHEALHNHYTQKSLSLSPGAEPKSSDKTHTPPPPPEVQLLESGGGLVQPGGSLRLSCAASGFTFSSYAMSWVRQAPGKGLEWVSAISGRGGSTFYADSVRGRFTISRDNSKNTLYLQMNSLRAEDTAMYYCVDGTTGTTDVDYWGQGTLVTVSS
Turning to B7, the values for the EC50 with human PD-L1 [6] and in the assay with human OX40 were 1.37 nM and 3.98 nM, respectively.

B8: PR003557 (bispecific antibody)
light: DIQMTQSPSSLSASIGDRVTITCRASQSINSYLNWYQQKPGKAPKLLIYTASSLLSGVPSRFSASGSWTDFSLTISSLQPEDFATYYCQQSFSTPYTFGQGTNLEIKRTVAAPSVFIFPPSDEQLKSGTASVVCLLNNFYPREAKVQWKVDNALQSGNSQESVTEQDSKDSTYSLSSTLTLSKADYEKHKVYACEVTHQGLSSPVTKSFNRGEC
heavy: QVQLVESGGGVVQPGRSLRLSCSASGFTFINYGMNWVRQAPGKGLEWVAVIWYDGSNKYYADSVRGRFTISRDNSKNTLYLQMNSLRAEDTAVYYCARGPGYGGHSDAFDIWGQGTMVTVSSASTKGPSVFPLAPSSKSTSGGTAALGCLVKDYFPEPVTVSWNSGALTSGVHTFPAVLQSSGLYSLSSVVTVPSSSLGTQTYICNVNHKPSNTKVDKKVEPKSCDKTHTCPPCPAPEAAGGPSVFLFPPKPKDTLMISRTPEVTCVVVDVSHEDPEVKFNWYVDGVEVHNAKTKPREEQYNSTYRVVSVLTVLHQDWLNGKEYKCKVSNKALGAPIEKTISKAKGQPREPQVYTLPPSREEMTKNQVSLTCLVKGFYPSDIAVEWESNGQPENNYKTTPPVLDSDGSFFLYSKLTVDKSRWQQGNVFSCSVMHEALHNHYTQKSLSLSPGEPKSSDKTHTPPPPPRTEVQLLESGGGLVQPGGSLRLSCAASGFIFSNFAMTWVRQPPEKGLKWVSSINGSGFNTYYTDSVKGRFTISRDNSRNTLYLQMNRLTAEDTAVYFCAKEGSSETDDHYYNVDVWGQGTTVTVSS
For the molecule B8, the EC50 is 0.876 nM with human PSMA [2] and 0.951 nM in the assay with human 4-1BB [7].

B9: PR003556 (bispecific antibody)
light: DIQMTQSPSSLSASIGDRVTITCRASQSINSYLNWYQQKPGKAPKLLIYTASSLLSGVPSRFSASGSWTDFSLTISSLQPEDFATYYCQQSFSTPYTFGQGTNLEIKRTVAAPSVFIFPPSDEQLKSGTASVVCLLNNFYPREAKVQWKVDNALQSGNSQESVTEQDSKDSTYSLSSTLTLSKADYEKHKVYACEVTHQGLSSPVTKSFNRGEC
heavy: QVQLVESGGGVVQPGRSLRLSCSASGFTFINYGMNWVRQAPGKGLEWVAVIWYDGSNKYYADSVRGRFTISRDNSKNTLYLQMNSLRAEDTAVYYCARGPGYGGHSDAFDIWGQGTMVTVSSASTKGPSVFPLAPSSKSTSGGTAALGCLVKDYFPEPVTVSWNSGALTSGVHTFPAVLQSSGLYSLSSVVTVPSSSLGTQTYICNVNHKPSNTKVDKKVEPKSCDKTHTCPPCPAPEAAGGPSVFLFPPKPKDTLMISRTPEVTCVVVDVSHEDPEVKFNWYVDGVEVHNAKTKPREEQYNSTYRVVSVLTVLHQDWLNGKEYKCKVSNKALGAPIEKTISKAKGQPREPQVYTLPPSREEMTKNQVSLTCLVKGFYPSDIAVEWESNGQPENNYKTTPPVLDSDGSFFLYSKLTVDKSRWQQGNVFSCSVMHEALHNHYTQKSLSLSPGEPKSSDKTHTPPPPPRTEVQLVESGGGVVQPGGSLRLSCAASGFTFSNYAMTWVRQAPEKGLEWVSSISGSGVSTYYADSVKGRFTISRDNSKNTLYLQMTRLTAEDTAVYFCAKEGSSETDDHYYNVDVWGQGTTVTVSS
As to B9, the EC50 with human PSMA [2] turned out to be 0.687 nM; with human 4-1BB [7] it was 0.476 nM.

B10: PR004284 (bispecific antibody)
light: DIQMTQSPSSLSASIGDRVTITCRASQSINSYLNWYQQKPGKAPKLLIYTASSLLSGVPSRFSASGSWTDFSLTISSLQPEDFATYYCQQSFSTPYTFGQGTNLEIKRTVAAPSVFIFPPSDEQLKSGTASVVCLLNNFYPREAKVQWKVDNALQSGNSQESVTEQDSKDSTYSLSSTLTLSKADYEKHKVYACEVTHQGLSSPVTKSFNRGEC
heavy: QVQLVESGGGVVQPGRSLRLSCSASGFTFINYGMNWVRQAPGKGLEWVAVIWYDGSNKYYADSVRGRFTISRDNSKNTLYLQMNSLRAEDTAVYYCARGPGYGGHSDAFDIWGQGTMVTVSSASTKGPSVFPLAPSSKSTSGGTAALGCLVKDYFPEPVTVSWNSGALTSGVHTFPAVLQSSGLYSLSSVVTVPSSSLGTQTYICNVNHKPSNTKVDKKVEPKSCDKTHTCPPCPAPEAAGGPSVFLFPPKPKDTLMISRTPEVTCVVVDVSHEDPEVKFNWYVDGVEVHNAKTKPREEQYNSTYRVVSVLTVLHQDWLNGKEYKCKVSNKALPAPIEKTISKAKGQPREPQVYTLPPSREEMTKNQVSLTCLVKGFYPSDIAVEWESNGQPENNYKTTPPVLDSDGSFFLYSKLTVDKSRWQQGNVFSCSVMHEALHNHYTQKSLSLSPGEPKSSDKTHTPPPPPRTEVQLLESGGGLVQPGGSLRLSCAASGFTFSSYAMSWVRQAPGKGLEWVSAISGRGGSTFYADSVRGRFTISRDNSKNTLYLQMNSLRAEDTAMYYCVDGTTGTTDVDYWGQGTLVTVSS
For B10, the EC50 with human PSMA [1] turned out to be 6.7 nM; with human OX40, 4.96 nM.

B11: PR003555 (bispecific antibody)
light: DIQMTQSPSSLSASIGDRVTITCRASQSINSYLNWYQQKPGKAPKLLIYTASSLLSGVPSRFSASGSWTDFSLTISSLQPEDFATYYCQQSFSTPYTFGQGTNLEIKRTVAAPSVFIFPPSDEQLKSGTASVVCLLNNFYPREAKVQWKVDNALQSGNSQESVTEQDSKDSTYSLSSTLTLSKADYEKHKVYACEVTHQGLSSPVTKSFNRGEC
heavy: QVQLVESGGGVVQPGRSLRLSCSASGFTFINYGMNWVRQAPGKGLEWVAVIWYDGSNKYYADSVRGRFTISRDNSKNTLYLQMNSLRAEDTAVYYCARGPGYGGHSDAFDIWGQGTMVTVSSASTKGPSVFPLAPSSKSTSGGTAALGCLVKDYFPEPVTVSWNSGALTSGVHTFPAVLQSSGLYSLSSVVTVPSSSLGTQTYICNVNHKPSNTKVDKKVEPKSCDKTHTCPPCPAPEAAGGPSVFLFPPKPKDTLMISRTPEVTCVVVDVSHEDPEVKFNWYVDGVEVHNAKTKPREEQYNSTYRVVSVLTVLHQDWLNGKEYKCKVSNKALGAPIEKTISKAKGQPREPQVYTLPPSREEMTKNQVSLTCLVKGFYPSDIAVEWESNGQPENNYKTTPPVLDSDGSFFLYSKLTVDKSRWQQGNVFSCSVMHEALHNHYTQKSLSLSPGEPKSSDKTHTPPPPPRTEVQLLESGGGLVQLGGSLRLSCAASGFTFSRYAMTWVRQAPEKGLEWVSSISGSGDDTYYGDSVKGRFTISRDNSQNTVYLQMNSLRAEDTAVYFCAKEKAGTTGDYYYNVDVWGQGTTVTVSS
Take B11: the EC50 with human PSMA [2] was 0.802 nM; in the assay with human 4-1BB [7], 0.819 nM.

B12: Anti-OX40 monoclonal antibody vonlerolizumab analog (antibody, V domains shown)
VH: EVQLVQSGAEVKKPGASVKVSCKASGYTFTDSYMSWVRQAPGQGLEWIGDMYPDNGDSSYNQKFRERVTITRDTSTSTAYLELSSLRSEDTAVYYCVLAPRWYFSVWGQGTLVTVSS
VL: DIQMTQSPSSLSASVGDRVTITCRASQDISNYLNWYQQKPGKAPKLLIYYTSRLRSGVPSRFSGSGSGTDFTLTISSLQPEDFATYYCQQGHTLPPTFGQGTKVEIKR
In turn, B12 had an EC50 in assay [3] of 0.194 nM.

B13: PR001760, anti-4-1BB heavy-chain antibody 1016P0011G10 (antibody, V domains shown)
VH: EVQLVESGGGVVQPGGSLRLSCAASGFTFSNYAMTWVRQAPEKGLEWVSSISGSGVSTYYADSVKGRFTISRDNSKNTLYLQMTRLTAEDTAVYFCAKEGSSETDDHYYNVDVWGQGTTVTVSS
In the case of B13, the EC50 in the assay with human 4-1BB [4] worked out at 3.76 nM; with human 4-1BB [8] it was 3.76 nM; with cynomolgus monkey 4-1BB, 0.443 nM.
